Data on 17 sequences can be found in the DeepSol protein solubility set.

The series in a line: soluble on expression in E. coli; label from the status in PepcDB or PDB records.
With “MSLQNLSPTQREILLALTDLYNRQKRMIKSKEVADIIGKDEGTVRNIILSLKVLGLVESKPGPNGGYMPTLKAYEIINNPTLTPILDKLNLYKGMIETDIKVENIEIIDITNPSANRVLLKVEGDLRKLKIGDAVRLGPTPYSRLVIEGLILHLDENSKEIVVDVKRMISIPKEKVKNLISKKLIALKPETSLREASMIFYKEAIRGAPVINQDEKVVGILTTADIIKAFFEGNYTAKVSDYMKTNVISINENEDLLDAIRKMIIYNVGRLLVLDSNNKAVGIVTRTDILRSIAGLEGLWTTEGHHHHHH”, the “soluble on expression in E. coli” value is listed as “soluble”.

“MSLQPAPFLILDDDDVFAQTLARALTRRGFAPQIAHTGGEALSLARQTPFAYVTVDLHLAASDRGLMPHGGTDSGLHWIAPLRQALPEARMLVLTGYASIATAVQAVKLGADEYLAKPANVDSILLALQVGVSEAVAEQTMENPAPLSVARLEWEHIQRVLSEHGGNISATARALNMHRRTLQRKLGKRPVAEGHHHHHH”: the “soluble on expression in E. coli” value is given as “soluble”.

With “MSLQSKTAKLPDNDRNRPLIQTFNDAQQKVWFDDALLHEDPSQCCNPEFWQQNGKVLGSATGRGTTWFVQLQQTQGALRHYRRGGLFGKLVADSYWFTGWEKTRSYQEFMLLNHLRDAGVNVPRPIAARVQKHGLLYKADLLSEKVPNARDLVSILQESPISDELYRKIGREIRKMHDAQVNHTDLNIHNILIDDQEKVWIIDFDKCYVQIGDSWKQGNLKRLKRSFEKEVCKRGINWSLEAFAIISSYKHEEEGHHHHHH”, the “soluble on expression in E. coli” value is given as “soluble”.

On to “MSLQWAKQSEQNVYSNRWFSVNLADVLLPDGRHLDHFLIRMRPVAVATVVNEADEVLLLWRHRFITDSWGWELAAGVVEDGEDVAVAAARELEEETGWRPGPLHHLMSVEPSNGLTDARHHVYWAEEGTYVGHPVDDFESERREWVPLKLVPDLVARGEVPAANMAAALLLLHHLRLGRDQEGHHHHHH”, for which the “soluble on expression in E. coli” value is recorded as “soluble”.

Consider “MSLRAVIRVAFILMDNFSLMSFTAAMDALVTANLMGDAPIFDIVKIGLKGRVAMSDLGIAIPTDLDLSELRARHDLLLVVGGLRVDLKSTPCLRRKLFAAASAGTSLGGLWNGAYFLADARVMGGHTCAVHPDGRAMMADAFPDLRISDRSHVVDLERVTCAGASSSLRMMLEYIRVTKGSSLARAVEEILGCDEHEGHHHHHH”, for which the “soluble on expression in E. coli” value is “soluble”.

Consider “MSLREAMSKQAMLDAIEAEREVLIGFLQEFVRAASPNPPGDTRAAAAVIQGFLSARGVPNELLGPQESMPNVVSECEGGRAGPRLVYNGHMDVFPVGDGHGWTRDPWSGDIEEGRLHGRGTCDMKTGTAASVIAYAYLYARRAQLAGSVALTAVSDEETGGRWGTRWLLENDTRWRGDCVLNGEPSSLDTIRFSEKGTLRLKFEVLAAGAHGAYVHRSESPTRIAAALIGRLAEVEAIEPSLPAALKAHLQREDVRRALDVAMGEGAADVVTRTTLNVGVLNGGLKINMIPDRCVFEVDIRLPVGTEPDVVLARLEGILAEFPQASMEVQQWHSTPPNVCAHDHPMVDFIADNAQAIVGRRPVAVPSIGSTDCRYWRRSGVPAYVYGPAPGRMAMSNESVDLDEFIAVAKVHAAAGWDYLNGAAEGHHHHHH”, for which the “soluble on expression in E. coli” value is “soluble”.

Turning to “MSLRETIKVGEKAPAFTVAALNGVDSISLSDYKGKIVIVHLWSPTCPHCRETNKVLPGIIGPYSKKANLAYIMIAIDMDTLTLRPVIEEDKLNFAIHGYDPFDGSAKTMMDYEAPGTPCINIVDEKGNLVGVNVTDDQLKKYLKKRFSRNSEGHHHHHH”, the “soluble on expression in E. coli” value is recorded as “not soluble”.

As for “MSLRGALAGMLALGCLTTSTLAFERWTLEARGKSGYDAPKLEWVEGKTINEIKNPTIQYALPKFEGDVFWDTINAKPVVPDSIYGEFVQYGYELFVNTQAVIGPEVADPNMRYSGNNLSCNSCHLGAGTAKYAAPLVDNHANFPQYRNRENSLGTMAARVNGCMQRSMNGYPLPAEGKEMKAFLAYIHWLGQGIPVGAKIEGRSLKTVDRKMVQQNAADVKNGAEVYARDCASCHGAEGEGLRRESKDGKPAGYEFPPLWGSDDTYNTGAGMYRTLKAADFIKSTMPKGAPTLSDKDAYDVAAFINDYSHYRTVKLNRQNDFVDPKVRVPDHDQPGPYGPEGSYIFPDEGKTQMDYKVGPYKGIIKQKPAAKEGHHHHHH”, the “soluble on expression in E. coli” value is given as “not soluble”.

In the case of “MSLRIVKVRTFHVRPRWLFVAVETDKGVIGWGEAVVEGQARVVERMIGDLAEYLAGRDPRRIEHHWQGMYRGAFYRGGAVLCSAISGIDQALWDITARDLGVPVHALLGGAVRDSVRMYGHARGVTDAEFAHAARRSRSAGMTAIKFGLDGPVRALDTVEYVDRQVARVAAVREAVGPAFDIALDFHGRTSPAMARRLAERLSPMGPLFIEEPCLPENVDALAEIARATNVPIAAGERIFTKWGFRELLERRAVSVVQPDLCHAGGISEVRRIAAMAEAHYVALAPHNPLGPVSLAACLQVAASTPNFLIQEYLALDDGADLGAGILAVPFSVENGHIAVPTGPGLGIEVDEAQLMDRVYAGDWTTPRFTHQDGSHGDWEGHHHHHH”, the “soluble on expression in E. coli” value is “not soluble”.

Consider “MSLRKEFPLMNRLKELRKEKNITLVELSEELGIPRSTLNRYENEDSEPKQETWEKLADYYGVSTAYLMGISNQKVSEEKALTAAKKVYQVYLSDDDLGKEIRKALMYFNKNDLDSVLKQAMQQYFTIPAVEWNTEFQSLKNTGFLYSWLEGYLVDRYRKEVKTNHNLITNTYYSIPSIDDVNEYGIFSDEIQIPLTEDFKQIFKVEDLSTKTHEEIKKLFKSDSTLIAYSYESSVDDKLKDDINMILDNARSEILNLKEKYPDKPSRIEQTTVLISKDEDTSFWSRNGSNDYIDELNLSEETKKLFVHLGSVFIEEKKRKSKAKEEGGSHHHHHH”, for which the “soluble on expression in E. coli” value is “soluble”.

As for “MSLRLERLNYNKIKIFLTLDDLTDRGLTKEDLWKDSFKVHQLFKDMMNEANTELGFEANGPIAVEVYSLQAQGMVVIVTKNQDADSEDDEYDDDYIEMQVKLDESADIIYQFHSFEDIIQLSESLQRIGITGGTVYHYDGQYFLSLEDLGSHTAEGVVAVLAEYGNPTTLTIYRLQEYGKLIMDGNAVETIQTHFSEGHHHHHH”, the “soluble on expression in E. coli” value was “soluble”.

Take “MSLRLIATEEAVTFQPVVDALRAHSRTDDASLDMILVRDVYGDEPARPAMIGRLSDVTGERLAEMDSNGVDMHLLSLTAPGVQMFDAETGTRLARIANDLMAQTVAANPTRFAGLGTFAPQDPASAAREIERVATQLRLNGLVINSHTNDLYYDDPFFHPVFEAIEASGLALYIHPRAPSKQIDRAFRDYGMNSAIWGYGIETSTNAVRMILSGLFDRFPRLKIVLGHMGEAIPFWLWRLDYMHGNATTFGGAPKLKLKPSEYFRRNFAITTSGVESHAALRYSIEVLGPENVMWAIDYPYQPMAPAVQFIRTAPIPEDVKAMVAGGNAARIFRITEGHHHHHH”: the “soluble on expression in E. coli” value is reported as “soluble”.

With “MSLRLLPQPQQCVLAKGYFIVGKMQLSTPVLSQEWKQFVTEMGGTLTDQSASSINIKLVDAIDNVSVNKEEAYRLTITPKAITVEAVAERGVYWAMQTLYQLKEEKGKKNRLQCATITDWPAFRIRGFMQDVGRSYLSLEELKREIAILSRFKINTFHWHLTENQAWRLESKIFPMLNDSTNMTRMAGKYYTLEEARELTEFCKAHQVLLIPEIDMPGHSAAFIRTFRHDMQSPEGMKILKLLLDEICETFDVPYLHIGTDEVHFTNPQFVPEMVAYVRDKGKKVISWNPGWKYKAGEIDMMQLWSYRGKAQQGIPAIDSRFHYLNHFDTFGDIIALYNSRIYNADMGSDDLAGVIMGIWNDRLIDKEWNMVLENNFYPNMLAIAERSWRGGGTEYFDKQGTILPVDENSEVFRNFEDFESRMLWYKEHLFKGYPFAYVKQTHVKWNITDAFPNEGDLTKVFPPEEELKDSYTYEGKQYGVRPAIGAGIYLRHVWGKIVPAFYKDPQENHTAYAYTYVYSSKTQEVGLWAEFQNYGRSENDLPPLPGKWDYKESRIWINDQEILPPVWSATHLVKSSETALGNENCVARPPLRVHLHKGWNKVLLKLPVGKFSTNEVRLVKWMFTAVFVTPDGDKAVEGLIYSPEKEGHHHHHH”, the “soluble on expression in E. coli” value was “soluble”.

For “MSLRMMNKRILKGTLTAIAALMSAHAFAGQEVTVYTAFETDLLAKYKSAFEKENPDIEIKWVRDSTGIMTAKLLAEKDNPRAEVVWGLAGSSMALLKDQGVLKPYTPKGANELRANLNDPQAQQAWYGNDAFFNAVCFNEAVAKQLNLPKPQSWEDLTNPVYKGHIAMPNPASSGTGYMQVSAWLQNMGEDKAWDYMQRLDQNIAHYTHSGSKPCVQAGMGEVAIGISMATRGAKLKTQGAPLDVIVPNGIGWESEAVGLVKESDAAKRVVDWSVSKAANELYIESYPIVGHQDVSKQVPNYPNVEKVMAKMDFTQMGVDRARVLQTWSEKFDAKSEPKEGHHHHHH”, the “soluble on expression in E. coli” value is “soluble”.

As to “MSLRNDPTGVTHAIRLDNDIFKLNVYIKNIDTSKSNLRYTEGYLQSLTNILTRAKEIAIQGASGTYESDDKKMISKEVNALLEDVVAIANAKGPDGYSIFSGTKIDSEAFKVTRENKISKTSKDGAGPQIIKVEYNGNQAEKKTEVYNDIHMSNNYPGNVIFFLQNQNIISSINTNGFAVKENTKIYIDNIEIGLTAGDTALDIVAKINESSAPVEASIDPVLNSLSIKTTTPHQIWITEEKESNVLQTLGILTKNNDTKLPPYNLSSSTEVRSRSIFDALIELRDTLYNNKEELVGSRSLAEIDESLKRLLISVADLGAKENRLDRSYERISKEAADMKEDMIQYTDLDVTKAITNLNMASLAYQVSIGISAKIMQTTLLDFIKEGHHHHHH”, the “soluble on expression in E. coli” value was “soluble”.

With “MSLRRSKATDHQAAGPSPGPRDAFRPASVDEDVPAAVGRLLDRFLAERVARAAALDPVFAHDIAERVARFTLDGGKRTRSQFVWWAHRACGGPAAGAEAALRVGAALELIQTCALVHDDVMDGSRLRRGRPALHTDVSAQYADAVLPAPGTRFGEAAAILAGDLALAWADDVVADTDLAPDPGRRVREVWSCLRMEMVAGQYLDIQGQATSSHSEARAMRAACLKSALYSVQRPLELGAALAGADTATTQALCSAGRCVGLAFQLRDDLHDVFEEPRRTGKPSGGDIRAGKPTYLVAVARARAEAAGDRGALAVLRRSLGCADLSDADLARVRDVLVTTGARDTVEAEIDRLVAQGLRHMGAASLAPEGRRHLDALLRSAAGAPSVRRQAPDASRSENGMPVSLLLTATAEGAPEKGIITITTDPNSSSVDKLAAALEHHHHHH”, the “soluble on expression in E. coli” value is recorded as “soluble”.

Regarding “MSLRRVFMKQIEGGICAVRGVSAYGIKPGKMGIAVIRAEGPAAGVFTRNKVVAAPVTLSRERIETEHRLSAVIANSGNANAFTGDDGFLDAMEMASMVAENLGLDPDNVAVASTGVIGRRLDVSFIKEHLPEVLEGLGSSPECSRAAAKAIMTTDRALKESAVELDCGVRIGAIAKGSGMIEPNMGTMLCFAYTDAKVPADVLDAALKIAVDKTFNMVVVDGDTSTNDMVLFTSTCKSGVKPCLDCLDDFEEGLVCVFTDLAKKMAKDGEGATKLIEARVTGAKKYEDARLVAKTIVRSPLVKSAIFGKDPNWGRVVAAAGYSGAELEQERLTLSFSGGGEEVELVKAGEISTASDLSLLKKIMANDEIIINLDLAMGEESATAWGCDLTYDYVRINAEYTTLEHHHHHH”, the “soluble on expression in E. coli” value is listed as “not soluble”.
